# Data from PMC12049489.
# Legend:
# Test in all cases: SPR
# [1] = target: anti-BACE1 hIgG1 M252Y / Q311I / N434Y / Y436I (human)
# [2] = target: anti-BACE1 hIgG1 M252Y / T307Q / Q311A / N434Y (human)
# [3] = target: anti-BACE1 hIgG1 Q7 (M252Y / Q311A / N434Y / Y436I) (human)
# [4] = target: anti-BACE1 hIgG1 M252Y / Q311A / N434Y / Y436I (human)
# [5] = target: anti-BACE1 hIgG1 Q5 (M252Y / Q311I / N434Y / Y436I) (human)
# [6] = target: anti-BACE1 hIgG1 M252Y / V308P / N434Y (human)
# M252F mIgG2a (mouse) = target: M252F mIgG2a (mouse)
# M252Y mIgG2a (mouse) = target: M252Y mIgG2a (mouse)
# [7] = target: M252Y.Q309T mIgG2a (mouse)
# [8] = target: anti-Aβ hIgG4 YEY (human)
substance,measurement,setting,value
human neonatal Fc receptor (hFcRn) (from UniProt P55899 24-365; P61769 21-119),Kd,[1],252 nM
same,Kd,[2],333 nM
same,Kd,[3],6 nM
same,Kd,[4],6 nM
same,Kd,[5],252 nM
same,Kd,[6],127 nM
mouse FcRn (from UniProt Q61559 22-365) (receptor),Kd,M252F mIgG2a (mouse),3320 nM
same,Kd,M252Y mIgG2a (mouse),826 nM
same,Kd,[7],308 nM
cynomolgus monkey FcRn (from UniProt Q8SPV9 24-365) (receptor),Kd,[8],9 nM
